Results: the supplement of paper PMC10065799, “High-throughput profiling of sequence recognition by tyrosine kinases and SH2 domains using bacterial peptide display” (eLife, 2023)

Key:
Grb2 SH2 = Grb2 SH2 (UniProt P62993); experiment: SH2 binding enrichment of the phosphorylated peptide, bacterial display (enrichment ratio); higher = better substrate or ligand; peptides without Tyr show the background
c-Src SH2 = experiment: as above
SHP2-C SH2 = experiment: as above
c-Abl (mouse) = experiment: phosphorylation enrichment, bacterial display (enrichment ratio); higher = better substrate or ligand; peptides without Tyr show the background
AncSZ = experiment: as above
c-Src = experiment: as above
FGFR3 = FGFR3 (UniProt P22607); experiment: as above
Sequence of FGFR3 (P22607 whole entry, looked up): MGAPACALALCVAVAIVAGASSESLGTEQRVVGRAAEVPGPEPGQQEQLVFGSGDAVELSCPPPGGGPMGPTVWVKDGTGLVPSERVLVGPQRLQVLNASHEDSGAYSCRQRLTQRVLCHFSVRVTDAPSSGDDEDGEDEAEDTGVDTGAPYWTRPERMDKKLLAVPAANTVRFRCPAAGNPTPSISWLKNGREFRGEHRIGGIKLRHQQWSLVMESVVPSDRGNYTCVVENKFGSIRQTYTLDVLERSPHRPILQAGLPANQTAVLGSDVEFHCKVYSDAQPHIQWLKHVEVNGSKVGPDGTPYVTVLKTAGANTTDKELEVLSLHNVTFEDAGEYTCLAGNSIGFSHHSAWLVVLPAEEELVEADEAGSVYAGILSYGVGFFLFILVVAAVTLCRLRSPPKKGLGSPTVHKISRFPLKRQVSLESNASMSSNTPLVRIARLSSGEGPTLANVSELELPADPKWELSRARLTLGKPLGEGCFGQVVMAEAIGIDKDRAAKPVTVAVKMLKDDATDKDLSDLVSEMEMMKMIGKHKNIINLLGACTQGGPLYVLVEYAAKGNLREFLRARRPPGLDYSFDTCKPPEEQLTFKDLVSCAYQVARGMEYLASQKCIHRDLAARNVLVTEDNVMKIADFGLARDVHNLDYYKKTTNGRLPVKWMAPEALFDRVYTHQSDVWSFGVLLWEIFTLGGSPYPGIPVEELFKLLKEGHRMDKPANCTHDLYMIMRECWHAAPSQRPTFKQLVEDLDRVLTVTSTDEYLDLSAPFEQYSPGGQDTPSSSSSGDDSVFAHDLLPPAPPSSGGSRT

Hck = Hck (UniProt P08631); experiment: as above
Sequence of Hck (P08631 whole entry, looked up): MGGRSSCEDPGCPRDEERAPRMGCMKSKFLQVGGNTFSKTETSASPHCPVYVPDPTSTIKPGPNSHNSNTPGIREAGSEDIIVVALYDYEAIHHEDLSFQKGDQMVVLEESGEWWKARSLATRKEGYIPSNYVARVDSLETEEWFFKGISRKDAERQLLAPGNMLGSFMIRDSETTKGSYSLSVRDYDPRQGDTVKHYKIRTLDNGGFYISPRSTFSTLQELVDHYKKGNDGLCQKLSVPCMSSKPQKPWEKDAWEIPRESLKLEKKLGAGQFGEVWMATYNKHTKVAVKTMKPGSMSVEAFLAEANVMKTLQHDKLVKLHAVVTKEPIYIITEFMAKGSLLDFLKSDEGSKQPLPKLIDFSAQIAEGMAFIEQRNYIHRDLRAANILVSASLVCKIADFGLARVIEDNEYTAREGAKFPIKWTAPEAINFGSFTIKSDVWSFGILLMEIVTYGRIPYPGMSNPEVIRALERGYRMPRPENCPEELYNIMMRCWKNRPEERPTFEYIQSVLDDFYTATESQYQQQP

Fyn = Fyn (UniProt P06241); experiment: as above
Sequence of Fyn (P06241 whole entry, looked up): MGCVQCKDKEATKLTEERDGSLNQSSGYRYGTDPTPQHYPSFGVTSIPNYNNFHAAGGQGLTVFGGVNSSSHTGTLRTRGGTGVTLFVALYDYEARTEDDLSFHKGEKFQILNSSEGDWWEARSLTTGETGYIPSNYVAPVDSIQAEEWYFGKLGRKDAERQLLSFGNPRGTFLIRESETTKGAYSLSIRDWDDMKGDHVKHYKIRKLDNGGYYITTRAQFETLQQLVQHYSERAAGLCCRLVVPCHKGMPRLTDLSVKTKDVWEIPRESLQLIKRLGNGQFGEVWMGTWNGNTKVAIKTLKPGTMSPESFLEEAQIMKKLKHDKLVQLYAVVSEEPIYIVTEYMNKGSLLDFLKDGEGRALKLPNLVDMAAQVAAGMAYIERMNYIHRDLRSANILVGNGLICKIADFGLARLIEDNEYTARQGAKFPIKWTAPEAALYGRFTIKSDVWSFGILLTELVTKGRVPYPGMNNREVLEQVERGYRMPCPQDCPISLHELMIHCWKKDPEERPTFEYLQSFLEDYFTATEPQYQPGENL

EPHB1 = EPHB1 (UniProt P54762); experiment: as above
Sequence of EPHB1 (P54762 whole entry, looked up): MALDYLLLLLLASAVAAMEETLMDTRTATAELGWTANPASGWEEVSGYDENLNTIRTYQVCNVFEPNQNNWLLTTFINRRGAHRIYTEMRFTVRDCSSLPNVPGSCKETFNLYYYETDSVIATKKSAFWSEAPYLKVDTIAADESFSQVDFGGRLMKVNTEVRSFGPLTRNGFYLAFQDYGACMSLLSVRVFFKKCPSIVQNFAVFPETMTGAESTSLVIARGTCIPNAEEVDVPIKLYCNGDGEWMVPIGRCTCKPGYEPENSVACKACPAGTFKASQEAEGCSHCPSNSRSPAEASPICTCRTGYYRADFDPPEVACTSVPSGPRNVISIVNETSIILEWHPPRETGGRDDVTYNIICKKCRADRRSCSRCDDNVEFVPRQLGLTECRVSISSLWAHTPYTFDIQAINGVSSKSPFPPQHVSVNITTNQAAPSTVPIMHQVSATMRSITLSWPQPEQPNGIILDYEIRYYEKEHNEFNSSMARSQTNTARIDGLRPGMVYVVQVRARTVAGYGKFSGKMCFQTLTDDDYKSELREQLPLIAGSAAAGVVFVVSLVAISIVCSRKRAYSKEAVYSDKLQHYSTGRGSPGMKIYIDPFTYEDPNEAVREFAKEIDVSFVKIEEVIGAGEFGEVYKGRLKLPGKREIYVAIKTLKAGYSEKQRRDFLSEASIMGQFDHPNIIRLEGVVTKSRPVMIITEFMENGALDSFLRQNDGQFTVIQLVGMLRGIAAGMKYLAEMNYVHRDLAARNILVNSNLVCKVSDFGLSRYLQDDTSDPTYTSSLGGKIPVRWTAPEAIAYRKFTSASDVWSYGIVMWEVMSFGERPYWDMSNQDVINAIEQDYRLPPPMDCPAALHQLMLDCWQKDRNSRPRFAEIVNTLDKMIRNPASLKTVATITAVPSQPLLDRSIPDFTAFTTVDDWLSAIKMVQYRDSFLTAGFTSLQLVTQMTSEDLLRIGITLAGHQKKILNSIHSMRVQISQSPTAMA

Fes = Fes (UniProt P07332); experiment: as above
Sequence of Fes (P07332 whole entry, looked up): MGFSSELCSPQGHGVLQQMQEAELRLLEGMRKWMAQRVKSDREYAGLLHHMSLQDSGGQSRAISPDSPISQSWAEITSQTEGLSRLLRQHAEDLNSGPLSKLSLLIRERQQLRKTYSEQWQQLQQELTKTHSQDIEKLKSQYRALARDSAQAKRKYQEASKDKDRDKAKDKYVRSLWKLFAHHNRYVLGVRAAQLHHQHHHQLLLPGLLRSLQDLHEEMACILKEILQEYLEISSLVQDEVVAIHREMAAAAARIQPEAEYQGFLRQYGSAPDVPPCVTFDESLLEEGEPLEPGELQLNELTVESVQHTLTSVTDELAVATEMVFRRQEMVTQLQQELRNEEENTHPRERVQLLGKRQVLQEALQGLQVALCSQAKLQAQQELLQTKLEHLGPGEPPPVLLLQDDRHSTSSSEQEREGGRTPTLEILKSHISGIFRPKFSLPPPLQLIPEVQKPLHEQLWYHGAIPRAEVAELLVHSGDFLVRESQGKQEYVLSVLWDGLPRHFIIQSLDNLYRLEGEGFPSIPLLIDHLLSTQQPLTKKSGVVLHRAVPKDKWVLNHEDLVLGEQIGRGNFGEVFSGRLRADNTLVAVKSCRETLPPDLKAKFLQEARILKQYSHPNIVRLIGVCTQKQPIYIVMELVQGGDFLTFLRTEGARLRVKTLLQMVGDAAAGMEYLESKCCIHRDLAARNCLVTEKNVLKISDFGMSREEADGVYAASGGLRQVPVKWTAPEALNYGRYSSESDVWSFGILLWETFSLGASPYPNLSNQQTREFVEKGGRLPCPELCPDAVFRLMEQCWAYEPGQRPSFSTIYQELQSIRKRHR

Jak2 = Jak2 (UniProt O60674); experiment: as above
MERTK = MERTK (UniProt Q12866); experiment: as above
Sequence of MERTK (Q12866 whole entry, looked up): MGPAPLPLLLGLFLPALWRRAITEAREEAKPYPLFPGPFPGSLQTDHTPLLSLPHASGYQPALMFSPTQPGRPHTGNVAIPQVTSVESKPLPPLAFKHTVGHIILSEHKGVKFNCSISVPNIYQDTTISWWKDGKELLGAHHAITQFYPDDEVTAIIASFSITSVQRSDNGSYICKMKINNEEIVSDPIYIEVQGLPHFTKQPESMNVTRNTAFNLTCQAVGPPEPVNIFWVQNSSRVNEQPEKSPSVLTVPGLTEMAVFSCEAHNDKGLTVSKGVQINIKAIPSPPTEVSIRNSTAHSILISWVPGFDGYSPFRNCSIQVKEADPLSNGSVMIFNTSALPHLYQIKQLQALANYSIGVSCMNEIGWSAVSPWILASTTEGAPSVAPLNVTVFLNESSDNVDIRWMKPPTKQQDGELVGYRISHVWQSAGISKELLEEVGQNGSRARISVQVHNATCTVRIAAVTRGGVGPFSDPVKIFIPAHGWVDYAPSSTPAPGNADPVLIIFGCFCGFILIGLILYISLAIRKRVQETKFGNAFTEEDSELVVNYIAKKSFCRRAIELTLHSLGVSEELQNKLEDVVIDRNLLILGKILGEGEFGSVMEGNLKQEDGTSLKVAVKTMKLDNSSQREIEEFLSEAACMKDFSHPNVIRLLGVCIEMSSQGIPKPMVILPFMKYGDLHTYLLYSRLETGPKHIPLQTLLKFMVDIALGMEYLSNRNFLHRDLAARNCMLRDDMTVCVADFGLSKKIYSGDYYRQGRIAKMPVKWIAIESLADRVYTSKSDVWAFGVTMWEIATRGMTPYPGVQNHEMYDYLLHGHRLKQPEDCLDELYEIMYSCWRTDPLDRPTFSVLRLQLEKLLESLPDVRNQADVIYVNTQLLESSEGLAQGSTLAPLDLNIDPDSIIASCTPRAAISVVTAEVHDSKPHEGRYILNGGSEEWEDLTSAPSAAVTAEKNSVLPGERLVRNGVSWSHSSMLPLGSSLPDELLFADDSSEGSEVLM

FGFR1 = FGFR1 (UniProt P11362); experiment: as above
Fer (mouse) = experiment: as above
EPHB2 = EPHB2 (UniProt P29323); experiment: as above
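For SH2 binding enrichment of the phosphorylated peptide, bacterial display in this document: peptide library displayed on the E. coli surface as eCPX fusions, selected cells deep-sequenced, score is each peptide's frequency after selection divided by its frequency in the input.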
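For phosphorylation enrichment, bacterial display in this document: 11-residue human phosphosite peptides and single-mutation variants displayed on the E. coli surface, counted by deep sequencing, each peptide's frequency after selection divided by its frequency in the unselected input library; frequency after pTyr selection over input frequency; kinase dosed for 20-30% of maximal phosphorylation in three min.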

Sequence | SH2 binding enrichment (Grb2 SH2) | SH2 binding enrichment (c-Src SH2) | SH2 binding enrichment (SHP2-C SH2) | phosphorylation enrichment (c-Abl (mouse)) | phosphorylation enrichment (AncSZ) | phosphorylation enrichment (c-Src) | phosphorylation enrichment (FGFR3) | phosphorylation enrichment (Hck) | phosphorylation enrichment (Fyn) | phosphorylation enrichment (EPHB1) | phosphorylation enrichment (Fes) | phosphorylation enrichment (Jak2) | phosphorylation enrichment (MERTK) | phosphorylation enrichment (FGFR1) | phosphorylation enrichment (Fer (mouse)) | phosphorylation enrichment (EPHB2)
DLAGRYFALKS [CKB_Y173_YF] | 1.38 | 0.585 | 0.688 | 1.49 | 0.633 | 0.545 | 0.613 | 0.453 | 0.433 | 0.487 | 0.848 | 1.57 | 0.558 | 0.412 | 0.37 | 0.574
RKLVDYDSARH [BIN1_Y150] | 1.03 | 0.387 | 0.42 | 0.916 | 0.491 | 0.649 | 0.668 | 0.418 | 0.449 | 0.498 | 0.968 | 0.792 | 0.57 | 0.571 | 0.565 | 0.481
MCDSHYLESRS [CLK1_Y56] | 1.04 | 0.675 | 0.719 | 0.493 | 0.578 | 0.424 | 0.718 | 0.35 | 0.449 | 0.495 | 0.81 | 0.618 | 0.426 | 0.509 | 0.473 | 0.535
LDFNEYVRDLN [HPRT1_Y198_F199V_YF] | 1.13 | 0.617 | 0.795 | 0.911 | 1.69 | 0.567 | 0.628 | 0.707 | 0.674 | 0.804 | 1.47 | 1.31 | 0.556 | 0.532 | 0.634 | 0.665
RPSRWYQFPVA [ANOS1_Y259_R262P] | 1.79 | 1.71 | 2.07 | 0.657 | 2.95 | 0.648 | 1.38 | 0.5 | 0.496 | 0.403 | 0.889 | 0.914 | 7.23 | 2.41 | 0.692 | 0.433
GCCSWYRGWAP [TIMP3_Y195_Y191C] | 1.56 | 1.24 | 1.14 | 0.59 | 0.944 | 3.1 | 0.966 | 0.784 | 0.651 | 0.563 | 0.967 | 0.705 | 0.459 | 1.38 | 3.84 | 0.565
FMLFQYLKQIE [RPAP3_Y569_D564Y_YF] | 1.53 | 1.08 | 1.48 | 1.07 | 1.12 | 0.498 | 0.783 | 0.505 | 0.447 | 0.539 | 1.36 | 1.27 | 0.482 | 0.468 | 0.506 | 0.716
EYKKKYSDADI [CKAP5_Y1860] | 0.819 | 0.435 | 0.614 | 0.637 | 0.709 | 0.371 | 0.475 | 0.367 | 0.442 | 0.393 | 0.819 | 0.671 | 0.383 | 0.404 | 0.399 | 0.474
TVVGLYQKSSL [MYH7_Y609] | 0.872 | 0.619 | 0.67 | 0.793 | 0.973 | 0.483 | 0.75 | 0.685 | 0.55 | 0.567 | 0.988 | 0.849 | 0.627 | 0.483 | 0.675 | 0.638
YGAHNYHPLPV [OAT_Y55] | 0.866 | 1.01 | 0.827 | 0.675 | 0.61 | 0.632 | 5.68 | 1.28 | 0.599 | 1.24 | 0.728 | 0.642 | 2.37 | 9.73 | 1.06 | 1.53
IDDNEYAFLKA [HNF4A_Y286_YF] | 0.79 | 0.469 | 0.546 | 0.922 | 1.54 | 0.728 | 1.43 | 0.98 | 0.8 | 0.652 | 1.32 | 1.13 | 0.538 | 1.44 | 0.659 | 0.597
RRAVKYLQMVG [AVPR2_Y117_C112R] | 0.84 | 0.525 | 0.695 | 0.961 | 1.13 | 0.737 | 0.629 | 0.674 | 0.778 | 0.815 | 0.978 | 0.887 | 0.727 | 0.52 | 0.431 | 1.01
TFYQMYDKGLV [IARS2_Y231] | 0.941 | 0.838 | 1.29 | 0.91 | 1.38 | 3.71 | 1.25 | 3.46 | 3.3 | 2.49 | 0.916 | 0.797 | 7.11 | 0.986 | 1.33 | 3.66
AHLTEYLSTHF [UQCRC1_Y219_D215H_YF] | 0.811 | 0.412 | 0.809 | 0.676 | 0.902 | 0.525 | 0.577 | 0.526 | 0.471 | 0.471 | 0.915 | 0.837 | 0.408 | 0.529 | 0.44 | 0.499
AEQDWYHGAIP [FER_Y461] | 0.725 | 0.634 | 0.478 | 0.646 | 1.06 | 1.19 | 1.54 | 1.22 | 0.846 | 0.481 | 0.921 | 0.802 | 0.443 | 1.72 | 0.559 | 0.546

Second part, led by results:

SH2 binding enrichment (Grb2 SH2) | SH2 binding enrichment (c-Src SH2) | SH2 binding enrichment (SHP2-C SH2) | Sequence | phosphorylation enrichment (c-Abl (mouse)) | phosphorylation enrichment (AncSZ) | phosphorylation enrichment (c-Src) | phosphorylation enrichment (FGFR3) | phosphorylation enrichment (Hck) | phosphorylation enrichment (Fyn) | phosphorylation enrichment (EPHB1) | phosphorylation enrichment (Fes) | phosphorylation enrichment (Jak2) | phosphorylation enrichment (MERTK) | phosphorylation enrichment (FGFR1) | phosphorylation enrichment (Fer (mouse)) | phosphorylation enrichment (EPHB2)
0.813 | 0.531 | 0.574 | DEFLEHRRIVG [FAM221A_Y20_Y20H_YF] | 0.58 | 0.747 | 0.409 | 0.502 | 0.47 | 0.425 | 0.447 | 0.902 | 0.716 | 0.48 | 0.45 | 0.387 | 0.494
0.919 | 1.02 | 1.14 | TLKVGYKEKQR [EPHA3_Y659_T660K] | 0.547 | 0.367 | 0.334 | 0.555 | 0.328 | 0.333 | 0.45 | 0.699 | 0.812 | 0.37 | 0.348 | 0.358 | 0.366
0.869 | 0.535 | 0.798 | SADIAYNFRHG [PAH_Y166_F161S_YF] | 0.789 | 0.587 | 0.457 | 0.469 | 0.423 | 0.416 | 0.447 | 0.673 | 0.574 | 0.374 | 0.433 | 0.348 | 0.33
0.94 | 1.11 | 0.782 | LYSNAYLSDLA [ALDH1A1_Y119_N121S] | 0.618 | 1.68 | 1.96 | 1.23 | 3.5 | 3.58 | 2.99 | 1.01 | 0.945 | 8.43 | 1.14 | 7.25 | 1.45
0.924 | 0.535 | 0.665 | LWPIWYSCHRP [MRGPRX1_Y130_R131S] | 0.943 | 1.82 | 0.601 | 1.04 | 0.601 | 0.519 | 0.83 | 1.97 | 1.27 | 0.687 | 0.643 | 0.881 | 0.694
1.63 | 1.44 | 1.39 | LLKMMYLMLDN [STAT1_Y203_K201M] | 1.07 | 1.08 | 0.611 | 0.902 | 0.644 | 0.584 | 0.946 | 1.51 | 0.991 | 0.597 | 0.874 | 0.603 | 0.693
0.847 | 0.557 | 0.77 | IKKFKYRIEEH [GJA1_Y137_G138R] | 0.449 | 0.653 | 0.363 | 0.495 | 0.336 | 0.398 | 0.392 | 0.83 | 0.717 | 0.345 | 0.402 | 0.361 | 0.389
0.653 | 0.417 | 0.829 | DEWFLYKMRDI [CPS1_Y879_K875E] | 0.935 | 1.25 | 0.816 | 0.878 | 0.615 | 0.486 | 0.751 | 1.56 | 1.63 | 0.4 | 0.503 | 0.586 | 0.585
0.763 | 0.453 | 0.409 | MSLRSYGSREG [APC_Y96] | 0.491 | 0.723 | 0.458 | 0.414 | 0.387 | 0.398 | 0.416 | 0.586 | 0.451 | 0.418 | 0.373 | 0.413 | 0.42
1.11 | 0.652 | 1.23 | VVQGIYGYHHH [UFSP2_Y285_Y290H] | 5.2 | 0.67 | 9.1 | 0.488 | 10.7 | 11.2 | 0.857 | 0.758 | 0.555 | 10.3 | 0.541 | 13.8 | 2.92
0.765 | 0.401 | 0.765 | SGGMDYGMVGG [TNRC6B_Y1382] | 0.52 | 0.571 | 1.95 | 0.494 | 0.702 | 2 | 0.471 | 0.574 | 0.517 | 0.384 | 0.404 | 0.389 | 0.806
1.12 | 21.8 | 0.925 | EADRKYEEVAC [TPM3_Y163_R168C] | 0.862 | 1.17 | 0.53 | 0.777 | 0.681 | 0.574 | 0.622 | 1.41 | 1.04 | 0.545 | 0.598 | 0.61 | 0.609
0.827 | 0.549 | 0.77 | VATSWYRSPEL [CDKL5_Y177_R175S] | 0.427 | 0.768 | 0.344 | 0.545 | 0.469 | 0.466 | 0.417 | 0.656 | 0.548 | 0.412 | 0.553 | 0.409 | 0.435
0.819 | 0.446 | 0.91 | PTTKTYFPRFD [HBA1_Y43_H46R] | 0.609 | 0.569 | 0.421 | 0.432 | 0.38 | 0.319 | 0.493 | 0.772 | 0.731 | 0.373 | 0.455 | 0.505 | 0.421
0.646 | 0.479 | 6.03 | DAPVVYLGSFG [PRAG1_Y132_R137G] | 0.671 | 0.863 | 0.507 | 0.623 | 0.631 | 0.514 | 0.389 | 0.851 | 0.776 | 0.437 | 0.491 | 0.475 | 0.579
0.856 | 1.35 | 0.97 | MALDRYVAICK [OR2B11_Y127] | 0.863 | 0.762 | 0.454 | 0.604 | 0.51 | 0.464 | 0.581 | 0.838 | 0.665 | 0.411 | 0.508 | 0.499 | 0.575
1.31 | 0.964 | 2.18 | FNVLQYVVPKV [EIF3A_Y382_E386K] | 9.24 | 0.832 | 0.383 | 1.02 | 0.386 | 0.465 | 1.09 | 0.797 | 2.2 | 1.41 | 1.1 | 0.348 | 0.607
1.25 | 1.15 | 1.43 | LARHMYDKEYY [MET_Y1230_D1228H] | 0.687 | 1.17 | 0.73 | 0.813 | 0.825 | 0.638 | 0.693 | 0.933 | 0.883 | 0.597 | 0.799 | 0.671 | 0.811
